Reference: patent US7563760 (GENETICS INSTITUTE, dated 2009)

T1: P-selectin expressed on the surface of CHO cells (CHO:P-selectin cell line) (UniProt P16109 42-830, limits assumed)
T1 construct: whole, on cells; also called P-selectin expressing CHO cells
T1 sequence (looked up): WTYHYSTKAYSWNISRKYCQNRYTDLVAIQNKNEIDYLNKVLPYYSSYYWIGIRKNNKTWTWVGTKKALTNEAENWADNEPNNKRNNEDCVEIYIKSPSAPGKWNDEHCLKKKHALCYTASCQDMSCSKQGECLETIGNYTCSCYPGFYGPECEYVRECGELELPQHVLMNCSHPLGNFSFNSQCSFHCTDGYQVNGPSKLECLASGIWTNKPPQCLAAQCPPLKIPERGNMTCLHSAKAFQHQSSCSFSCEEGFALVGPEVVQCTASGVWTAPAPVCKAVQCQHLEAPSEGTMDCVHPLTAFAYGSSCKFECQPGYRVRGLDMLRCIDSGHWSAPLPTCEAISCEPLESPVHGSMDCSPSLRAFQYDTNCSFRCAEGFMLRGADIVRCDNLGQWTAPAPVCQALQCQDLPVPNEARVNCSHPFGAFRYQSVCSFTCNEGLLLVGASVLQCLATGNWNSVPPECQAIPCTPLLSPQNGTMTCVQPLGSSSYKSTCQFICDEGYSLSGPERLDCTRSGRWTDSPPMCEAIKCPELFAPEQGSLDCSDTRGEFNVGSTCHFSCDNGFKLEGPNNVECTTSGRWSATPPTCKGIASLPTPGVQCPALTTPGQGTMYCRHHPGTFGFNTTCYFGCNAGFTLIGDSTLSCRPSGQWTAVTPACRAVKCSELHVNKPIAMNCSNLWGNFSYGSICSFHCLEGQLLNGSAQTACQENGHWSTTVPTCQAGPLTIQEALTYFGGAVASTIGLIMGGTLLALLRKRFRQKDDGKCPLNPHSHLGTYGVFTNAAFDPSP

T2: E-selectin expressed on CHO cells (CHO:E-selectin) (UniProt P16581 22-610, limits assumed)
T2 construct: whole, on cells; also called E-selectin expressing CHO cells; CHO cells which express E-selectin
T2 sequence (looked up): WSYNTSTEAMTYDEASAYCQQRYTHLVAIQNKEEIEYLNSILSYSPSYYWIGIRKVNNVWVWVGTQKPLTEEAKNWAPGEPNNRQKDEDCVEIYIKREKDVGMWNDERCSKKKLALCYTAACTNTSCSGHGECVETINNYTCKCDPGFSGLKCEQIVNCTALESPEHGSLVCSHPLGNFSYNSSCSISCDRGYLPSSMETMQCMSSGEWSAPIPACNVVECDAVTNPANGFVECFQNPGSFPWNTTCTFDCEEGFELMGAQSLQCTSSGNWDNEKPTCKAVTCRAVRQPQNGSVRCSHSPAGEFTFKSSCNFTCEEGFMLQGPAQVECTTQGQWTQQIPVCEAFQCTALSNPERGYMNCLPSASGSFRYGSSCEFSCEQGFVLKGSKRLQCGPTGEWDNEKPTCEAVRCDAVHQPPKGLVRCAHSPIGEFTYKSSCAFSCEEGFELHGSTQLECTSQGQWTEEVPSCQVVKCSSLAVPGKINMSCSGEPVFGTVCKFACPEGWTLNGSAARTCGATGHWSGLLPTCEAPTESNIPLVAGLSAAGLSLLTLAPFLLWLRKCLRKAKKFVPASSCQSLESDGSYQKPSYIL

T3: chimeric protein comprising the extracellular domain of human E-selectin and the Fc portion of human IgG1 … (human, UniProt P16581 22-556)
T3 construct: extracellular domain; Built analogously to LEC-γ1; also called soluble E-selectin chimera; immobilized E-selectin; not shown: Fc portion of human IgG1
T3 sequence (looked up): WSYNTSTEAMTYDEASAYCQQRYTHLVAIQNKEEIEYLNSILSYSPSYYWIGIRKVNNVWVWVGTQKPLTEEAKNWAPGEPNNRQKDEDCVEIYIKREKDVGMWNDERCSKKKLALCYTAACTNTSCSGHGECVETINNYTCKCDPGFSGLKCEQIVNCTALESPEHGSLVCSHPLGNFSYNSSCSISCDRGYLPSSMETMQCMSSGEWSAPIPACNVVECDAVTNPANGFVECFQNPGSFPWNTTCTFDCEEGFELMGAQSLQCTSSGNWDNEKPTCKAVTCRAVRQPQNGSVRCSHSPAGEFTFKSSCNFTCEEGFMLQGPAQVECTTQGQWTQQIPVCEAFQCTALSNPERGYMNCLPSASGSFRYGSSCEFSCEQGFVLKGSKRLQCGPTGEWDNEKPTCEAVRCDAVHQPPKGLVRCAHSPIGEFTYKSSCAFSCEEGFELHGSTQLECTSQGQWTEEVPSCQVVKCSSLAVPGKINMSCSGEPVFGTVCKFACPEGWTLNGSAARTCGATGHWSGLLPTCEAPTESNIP

T4: LEC-γ1, chimeric form of P-selectin conjugated to the Fc portion of a human IgGγ1 (human, UniProt P16109 42-771)
T4 construct: extracellular domain; Built by known methods (Aruffo et al. 1991), made in CHO DUKX cells; also called P-selectin/IgG chimera; P-selectin/Fc chimera; not shown: Fc portion of a human IgGγ1
T4 sequence (looked up): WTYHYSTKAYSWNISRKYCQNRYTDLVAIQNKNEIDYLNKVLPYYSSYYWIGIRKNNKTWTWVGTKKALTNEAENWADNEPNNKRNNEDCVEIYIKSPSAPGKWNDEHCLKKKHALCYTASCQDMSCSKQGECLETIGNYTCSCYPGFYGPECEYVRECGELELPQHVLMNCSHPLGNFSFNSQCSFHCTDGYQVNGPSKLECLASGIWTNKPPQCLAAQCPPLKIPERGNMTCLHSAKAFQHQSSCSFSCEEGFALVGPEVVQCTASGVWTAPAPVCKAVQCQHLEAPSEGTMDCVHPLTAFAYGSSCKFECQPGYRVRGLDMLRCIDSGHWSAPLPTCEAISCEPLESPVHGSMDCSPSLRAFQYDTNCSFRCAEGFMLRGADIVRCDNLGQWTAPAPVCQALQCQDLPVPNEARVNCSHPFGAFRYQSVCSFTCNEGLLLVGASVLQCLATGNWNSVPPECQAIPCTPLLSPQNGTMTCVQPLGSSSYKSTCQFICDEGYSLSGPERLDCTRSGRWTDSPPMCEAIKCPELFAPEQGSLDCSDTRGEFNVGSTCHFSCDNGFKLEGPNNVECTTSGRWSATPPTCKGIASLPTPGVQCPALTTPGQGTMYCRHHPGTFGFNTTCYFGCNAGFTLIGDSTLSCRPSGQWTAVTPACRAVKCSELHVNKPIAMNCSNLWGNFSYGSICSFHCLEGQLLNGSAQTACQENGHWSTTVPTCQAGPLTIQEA


Columns and labels:
[1] = target: T1, P-selectin expressed on the surface of …; experiment: conditioned medium coated on plastic dishes; adhesion of CHO:P-selectin cells
Method: COS cells were co-transfected with the pED.sPSL.T7 plasmid of Example 5(C), the pEA.3/4FT cDNA of Example 2, and a plasmid containing the PACE cDNA as set forth in SEQ ID NO:5. A parallel control co-transfection was done using only the pED.sPSL.T7 plasmid and the pEA.3/4FT plasmid. After 45 hours, conditioned medium from these transfected COS cells was coated onto plastic dishes and binding to CHO:P-selectin cells (Example 4) was determined.

[2] = target: T2, E-selectin expressed on CHO cells …; experiment: plate coated with chimera; adhesion of 3H-labelled CHO:E-selectin cells (FIG. 15)
Method: Quantitative adhesion of CHO:P-selectin, CHO:E-selectin and CHO:L-selectin expressing cells was performed as described in Example 4(c), with the following modifications: COS cell and antibodies were omitted. Instead, 48-well microtiter plates (Costar) were coated for 16 hours at 4° C. with varying quantities of protein A-purified soluble PSGL-1/Fc chimeras. The unbound material was removed and the coated wells were treated with Hank's buffered saline (HBS) with 1 mg/ml BSA and 2 mM CaCl_2 for 1 hour at 4° C. Tritium labeled CHO selectin expressing cells were added and binding quantitated as described in Example 4(c).

[3] = target: T3, chimeric protein comprising the …; experiment: affinity precipitation from 35S-labelled COS membrane lysates (FIG. 29A)
Method: (§1) The labeled cells were washed, incubated with EGTA to loosen them from the dish surface, scraped from the dish, pelleted, and suspended in cold 10 mM PIPES buffer, pH 7.5, containing 100 mM KCl, 3 mM NaCl, 3.5 mM MgCl_2, and protease inhibitors (see above). Membrane extraction then was carried out by sonication, low speed centrifugation, high speed centrifugation, and solubilization in membrane lysis buffer as above, for labeled myeloid cells.
(§2) Affinity Precipitations. Membrane extracts were diluted 1:4 or 1:5 with cell lysis buffer or with TBSC buffer (20 mM TrisHCl, 150 mM NaCl, 2 mM CaCl_2, pH 7.5) supplemented with 5 mg/ml bovine serum albumin (approximately 99%, Sigma). Extracts thus diluted to 0.2-0.25% Triton X-100 were incubated with human IgG_1-Protein A Sepharose with end-over-end mixing at 4° C. overnight. […] The resins were washed 5 or more times in buffer containing 0.1-0.5% Triton X-100 until the radioactivity of the wash supernatants was reduced to background level. […]
(§3) COS cells were cotransfected with cDNAs encoding either PSGL-1 or CD43 and either Fuc-TIII or Fuc-TVII. […] The precipitated products were evaluated by SDS-PAGE/autoradiography following their release by EDTA/EGTA (for selectin mediated binding) or by boiling in SDS (for immunoprecipitations).

[4] = target: T4, LEC-γ1, chimeric form of P-selectin …; experiment: affinity precipitation from 35S-labelled COS membrane lysates
Method: as §1, §2, §3

| Binder | fold increase in bound CHO:P-selectin cells against P-selectin ligand not co-expressed with PACE [1] [fold] | binding result [2] | binding result [3] | binding result [4] |
| --- | --- | --- | --- | --- |
| sPSL.T7 co-expressed with 3/4FT and PACE (PACE-cleaved soluble P-selectin ligand) (ligand, not shown: large carriers, glycosylated; co-expressed with 3/4FT, also called PACE-cleaved P-selectin ligand; CP/PSL-T7 (R4.1) product) QATEYEYLDYDFLPETEPPEMLRNSTDTTPLTGPGTPESTTVEPAARRSTGLDAGGAVTELTTELANMGNLSTDSAAMEIQTTQPAATEAQTTPLAATEAQTTRLTATEAQTTPLAATEAQTTPPAATEAQTTQPTGLEAQTTAPAAMEAQTTAPAAMEAQTTPPAAMEAQTTQTTAMEAQTTAPEATEAQTTQPTATEAQTTPLAAMEALSTEPSATEALSMEPTTKRGLFIPFSVSSVTHKGIPMAASNLSV | ~2 | – | – | – |
| 148.Fc, P-selectin ligand-IgG chimera with amino acids 42-189 of SEQ ID NO:2 (Fc fusion, tyrosine residues of the anionic region (46, 48, 51 of SEQ ID NO:2) are the major site of sulfation; glycosylated, co-expressed with 3/4FT, also called pED.148.Fc product; pED.149.Fc; not shown: NotI junction/linker of pED.Fc; Fc region of a human IgG1 from pED.PSL.Fc) QATEYEYLDYDFLPETEPPEMLRNSTDTTPLTGPGTPESTTVEPAARRSTGLDAGGAVTELTTELANMGNLSTDSAAMEIQTTQPAATEAQTTPLAATEAQTTRLTATEAQTTPLAATEAQTTPPAATEAQTTQPTGLEAQTTAPAAM | – | binds | – | – |
| FFFE.148.Fc (Fc fusion, glycosylated, co-expressed with 3/4FT, also called pED.FFFE.148.Fc product; not shown: NotI junction/linker of pED.Fc; Fc region of a human IgG1) QATEFEFLDFEFLPETEPPEMLRNSTDTTPLTGPGTPESTTVEPAARRSTGLDAGGAVTELTTELANMGNLSTDSAAMEIQTTQPAATEAQTTPLAATEAQTTRLTATEAQTTPLAATEAQTTPPAATEAQTTQPTGLEAQTTAPAAM | – | binds | – | – |
| recombinant CD43 (pFCD43) from COS cells co-transfected with Fuc-TIII (other, UniProt P16150 20-400, looked up, co-expressed with Fuc-TIII, Membrane detergent extract; also called recombinant leukosialin) STTAVQTPTSGEPLVSTSEPLSSKMYTTSITSDPKADSTGDQTSALPPSTSINEGSPLWTSIGASTGSPLPEPTTYQEVSIKMSSVPQETPHATSHPAVPITANSLGSHTVTGGTITTNSPETSSRTSGAPVTTAASSLETSRGTSGPPLTMATVSLETSKGTSGPPVTMATDSLETSTGTTGPPVTMTTGSLEPSSGASGPQVSSVKLSTMMSPTTSTNASTVPFRNPDENSRGMLPVAVLVALLAVIVLVALLLLWRRRQKRRTGALVLSRGGKRNGVVDAWAGPAQVPEEGAVTVTVGGSGGDKGSGFPDGEGSSRRPTLTTFFGRRKSRQGSLAMEELKSGSGPSLKGEEEPLVASEDGAVDAPAPDEPEGGDGAAP | – | – | no binding | no binding |
| recombinant CD43 (pFCD43) from COS cells co-transfected with Fuc-TVII (other, UniProt P16150 20-400, looked up, co-expressed with Fuc-TVII, Membrane detergent extract; also called recombinant leukosialin) STTAVQTPTSGEPLVSTSEPLSSKMYTTSITSDPKADSTGDQTSALPPSTSINEGSPLWTSIGASTGSPLPEPTTYQEVSIKMSSVPQETPHATSHPAVPITANSLGSHTVTGGTITTNSPETSSRTSGAPVTTAASSLETSRGTSGPPLTMATVSLETSKGTSGPPVTMATDSLETSTGTTGPPVTMTTGSLEPSSGASGPQVSSVKLSTMMSPTTSTNASTVPFRNPDENSRGMLPVAVLVALLAVIVLVALLLLWRRRQKRRTGALVLSRGGKRNGVVDAWAGPAQVPEEGAVTVTVGGSGGDKGSGFPDGEGSSRRPTLTTFFGRRKSRQGSLAMEELKSGSGPSLKGEEEPLVASEDGAVDAPAPDEPEGGDGAAP | – | – | no binding | no binding |
